Data: the DeepSol protein solubility set

Test: soluble on expression in E. coli; label from the status in PepcDB or PDB records

Soluble on expression in E. coli, not soluble:
MGSDKIHHHHHHMYSLAVNNGTLSDEQISGLVHQALADRQLDGQRILILIPDGTRTAPIPQIFRLLHQELGKRVPALDFLIALGTHNPMSEEQINHLVGVTPKERETTFKKVRIFNHLWNEPDTFISCGVISADEIAEISRGMLHQSVEVRVNKLVTQYDLIMICGPVFPHEVVGFSGGNKYFFPGIGGQEVIDISHWLGALITSYEIIGTSGITPVRRLINRAANLISTPKLCLAMVVAPKTNQLAGLYIDKPESAWEAAAKLSDKLHITYVDRSFKQVLSVMPEMYDDIWTAAKGMYKLEPVVADGGEVIIYAPHITEFSYTHGEILSQIGYHVRDYFLKQWDKFQAYPGGVLAHSTHLKGMGTFDFTEGEKARIRVTLATGISAERCAAHNLNYRDPATIRPTEWANREDEGILLVPKSGEILYRLIQA, MGSDKIHHHHHHMYSTTQHQSPETVVTVSSLGKAYKIYNSKRDRAKQLIFQNRRKYFQEHWALRNISFDLRRGESIGIVGKNGSGKSTLLQLICGTLKPSQGEVIVNGKIAALLELGSGFNPEFSGRENVYLNASILGLNKQEIQERLDDILAFADIGNYVDQPVRTYSSGMVVRLAFSVIAHVDADILIVDEALSVGDAYFTQKCMRFIQRFQEKGSLLFVSHDANAILSLCNRALLINQGELKRVGKPKEVIEDYTRDLQKRNLADQNNKINRPERMKEQENTAHMKRQSGVQYTQKNIENEIMKWSDYRCKLINSSNLANTIVITRFDETLTTRETYGGEKAEITNVELENIETNKTIQNIKGGEIVRLRLKFEARTAIGRPIIGFILKNSKGLTILGDNTNNSISENNDFNAFEGDKVTTDFVFTVPMLQQGEYMISVSVADGCITEHEILHWMNDALLLRSQCTSIAAGLAGVPMHSISIEIEK, MGSDKIHHHHHHMYVGTQVAARDDEDFKVWAQLGVKNISADPPGKPASWVLDDFERLRDKVESFGLVLDMVQLPLPSRPIEQASYPDILLAGPERDRQIDAVCTMIENIAKAGIPAAKYNLNLIGIPRTEMELGRGGSLNEAWRWDKADHNADPGLAGVLSEDENWERIDYFLERVVPVAASNKVRLACHPHDPYTPPGYKGVTRVLGTIEGLKKFVQMRENPYHGLNFCQGSIGEMLDNPREEIDDIIRWFGSRDKIFNVHFRNISGGKLSFMETFPDEGDMDMVRSLKLYHELGYRYMIMPDHVPTIAGRDPVGVAFGFCYGYIAALIEALDNKHL, MGSDKIHHHHHHMYYISLNVKRRKLNKDNNYNEFLTDPIYSRLIENVEKLKDKVFHLSKIVNLQAYMEGFTFYTSSNYRSTPIDVIPRIITSELFFKISNYLVARSYVLNKFIREVYQEGSNPIPDWIVKTTPYFRPEMMGFSPPKDIYIHVYGADIVRVNGVPFILEDNLRIPSGISYSYKAFEYVDRFLPELKEGYDNRVLQINGLDYLYDILRYVSGNKDPIIVILTDGNYNSAYFEHKFISEKLGIILAEPNDIYVKDKEVVVRTVDEGEVHVDVIYRRIEDLDYLTPGLMKAYLRGWVTLANAPGTGVADDKATFVWIPYLAEKYGIKLENVIQPYTICLYEKENLEKVITQPTRYVIKKREGYGGIGLAIVKDDNINVLKEIYKEYENFIAQEVLDFDTVISVVNDSFYETYADMRIFTYYDKVASAVLSRVGIMGSRITNNSSGGMVKPLWIIK, MGSDKIHHHHHHNDDDDKYYYPTNFENLSLPNDTIIAKGEDLTLKPTLNLINPKIYSWKIDGKEVSNEVNYTFSTSVGGKHEIIFEAQDSKGNTDKAQITVDVFAYYGGFYVINEGWAGHDPASVNYYKDGKWNFNIVESLGQTGTVGVIQDSYMYIVAKDAPYLTQIELANFNITKQLSTEIEEQLDYGQANSFCTINETTGILTASRGAYKINLNPLSIGNMLPQLNSESANGNGCKDILKSGDYVFVNNMDTIKIYKSSDLSFVKKLTALMKTGFAQTKDGNIWAANGQSLIKIDPKTLDETTVELPDNINVFYNQWAYTPTGLCASTTENALYIVNTTVVPGAYGDSYYGKNIYKYNTESKIAQEFFKAPSKIQSIYGAGIQVNPQNGDVYLIYTEDGYGTHYLNTNIYVADGQSGTQKQIIDYTGKYWFPSSIVFK, MGSDKIHHHHHHNEMTEMNPDTNRTIGLDVYTEVQTRGTETTTSTLKANAGFGIFAYQTSSAGWNSEKGNTTPNFMYNEHATWTSDSWGYTNLRFWPIDDKKITFFAYAPYESKPEVGTDQKITLSGQNAKGAPTITFEVKTSNNWKDMIDLVTDCHTAIQDQTNESNKGTVQFKFSHVLTQIANIKVKPDVNLGTDTKIFVTGLKLDPGSTTLYNKAVYKFDNDTWEAISPDASYFSTEQDLSDFLNKTTTDQWGYNKSSINVSDDQNATALFSDTEALYFIPVNNKNGTTNAGDLKLKINYDIVTKVTDTSNLTSTITNKEVSLPKNTFKKGTKHTYVLTIKMNAIKITVEDNMEGWTDDSDSDINVEK, MGSDKIHHHHHHNTPREVTLHFLRTAGHPLTRWALQRQPPSPKQLEEEFLKIPSNFVSPEDLDIPGHASKDRYKTILPNPQSRVCLGRAQSQEDGDYINANYIRGYDGKEKVYIATQGPMPNTVSDFWEMVWQEEVSLIVMLTQLREGKEKCVHYWPTEEETYGPFQIRIQDMKECPEYTVRQLTIQYQEERRSVKHILFSAWPDHQTPESAGPLLRLVAEVEESPETAAHPGPIVVHCSAGIGRTGCFIATRIGCQQLKARGEVDILGIVCQLRLDRGGMIQTAEQYQFLHHTLALYAGQLPEEPSP, MGSDKIHHHHHHQKEGSLKIGKEGAESGFINLRVEIPPGAFGKQKVLKITRLSDEERKLYPDVFVGDLYRVEFADGVDEFALKPIRLKYYFDAKYLRGENYNNLTFAYATEDGGYRIIPGSMIGKDERGYYVEAFTYHLSVFGVVLRSAGFQKHGIRLLREAVNSSGPAVLLVPGEDPTFEGVVKDNNIWETIFPDRTIMTYEYALYEPRSLAYSEMYRSFIEKEGRRSFIDFESDFLSQEILKYSQYEFDILAHGTGGLIVLRMLQRHPEVNNVRKVVLLSTPVQGTNVVNPLYFSSIFYGKDPEVLEDIFGIEWTKLKMLTLHIRNLIDTLGEVVQEILPDSQLVKELGGFSRNDVEIVSICGDTPPYGVDVSGTELERFYPEFVKGRGDGFVSIQSCRVGKVEQLSGNFYDLYSREENVAYIRELLKYEVQVFSGFRSDDYEEYLPSKNPELSEESAQKVVEVKETEGTEFPVLPVNILFENFLERIRSLELSSYLSGALVGKEVYIATESGVFAWDKKVLDKKIEFFKKIEDYASFVGEGDIFIIDNIGIKKYAPFPLVGDISDALITRNAIIYARVVPGGVRYYLFRNGAEKLIATSPGTTVRMKSENGNYLLITDGEVVAIGSDFKEKGRVLSSLFGEKVKIVDASFKDDAFYILLNDGSIAFVSSSRSETKNYGLAVPKKVLNFQGRILVVYDGVILDLSAGKAQRFDRGIIDVFPGNESLFIVFDEKVRVSVEEWWLSKD, MGSDKIHHHHHHSCTQDSDTFYPSSPEEEHPSVDESRMIPIQLSVDGVDQFYGGAVTRSGETVARLVQPLDSTYDTGYDVETTVESIPLENIVSTRANLGNVQFRVVAYRTDASSADHYAGTAVYKTNGSGVAAIVAKTATPVNSAGQWILGPGTYTFVCYSYGLNSAPAMLSGNWSATVSHNQDFMLCRKEEVVVAPDDRGEFTLGGISFTRQCALLQLAVTANDFTNNTVQQCAATVSNLNSNNITWNAGQTALSTGGTGGAVNFSWSSLNAATVNSNVYKVLPQSSRTLTIKLTTLRIGNIQYNNRVTVNASGRQFAAGGNYKITVKITGNGITVGGATWAKGNVYKSGSNFYFESSQSGYHSGTQGGSFFGWNTLSSTNNTYGGSSFSSDNDPCYQVAPRGTWCTPTANQLQNLGNSGYRSGYLDGKRGGYFGGNKVFLPAMGNRGKNNVNYWPETGYYRSSTGASGKRCYYLEFNQSYAVKNNYYWYWDGFPIRCVKR, MGSDKIHHHHHHSDDKDSYPVPSDIENLKATPAPGQITLSWTNPADENLYYVQIEYTIGATGKSYRKQVSQYANELVIDNLLQKYGEINFTVQAFNRGNTAGTIHQITAQAEKASPTFGTPVKIDLDYKKIWTNAPFPTRPIKDLVDGNIATFFHSWWSSLVEMPHYLVVDLGEEVSAIKFRSTNTNRANDSSWKTINLYTSDSYNPAEWFDGVEKIDGNTVDISQAGTHKETTLTGLPDGVSEVYNSEVIPLSKPSRYLWFEVTETTKGTPYFALGELEIYQCSMVVLE, MGSDKIHHHHHHSDSLQSAYDTDATYRDKAGKKESGYTATFTETCNSENDVQIIVDYTVEPNNKSDVEIFQDRMDIIKDNTNASDIYADGGYYGENVINKANSKGIEIQLHYTDMTGKTAPEGQLPAHHFVFNKDMEMVQCPGGQIPSSSKYNSKTKITTSHFPKEVCNNCPHRCNCPLKEQKRDMVVRISKKSILASQVRETVNDPHIKHENISKRAAIEGTNSAIKGCQGAKRLRVRGKIKCTLQIGFKVIGHNFKQIFRALTKQIKKPKIKTKGLLCPNPN, MGSDKIHHHHHHSEENESSGTIEMNQLPGTAQSFLSNYFPGQTPEKIERTNTDQENARLLYRVVFPNEVKVEFSENGGWKRLMIPDQKLPGSLDSLWGKIIEYVQQLFPDDPFIGIENACYGDCVLLSSGKKIAFYYDGTCIGYEMDIKDESGVPQPVRDFVATYFPDGVFQAVVEHIPNENVTAGYSFWLENGFKCVLNDRGQWTEVNGGTELLPVSILETLPAKVTEQLYRDYPAAQVTYIRLEGTCYTIQVSKTVYVTIDPESKPIVVPVMQAQALAEEYFGKLRSISISHPLHTDVLNFKVCLPNGFNMLVNEDASEWLNIDGNGFAFPEKLVASLPEKITEYISAHSNSEITRVDRSVAASFLVELTNGDGLMFDSQGGFLGKEKIELSISEKTYRYMRHQFPDDLNMYFSSYSIEGWIYKLGDGSQVRFDRDGNFVEMIAAAK, MGSDKIHHHHHHSLQAQSTVSHNLANVDTVGFKAALANTEAFQIRGKGYPSRIDALHVDQGFDRSQGHQKVTGNPLDVSLQQDRWLAVQSPDGSEAYTRNGELALTANGQLVTANGHAVLDEGGNPMTIPPHQAMEIGSDGSISIIPQGEGPQTMAIVGKMKVVDAPADRLMRRPDGLMRNTSTDPAQAFAVATGKTVNSGMLEGSNVDAAGALVEMIQLQRQFEMQVKIIKNGDDNAQSANSLLRVSG, MGSDKIHHHHHHSNPTRSIPATDAVSSATAGKKMGLQTYSLGQELLQDMPNGLNRLAKAGYTDLEIFGYREDTGKFGDYNPKNTTFIASKDYKKMVDDAGLRISSSHLTPSLREYTKENMPKFDEFWKKATDIHAELGVSCMVQPSLPRIENEDDAKVVSEIFNRAGEITKKAGILWGYHNHSNEFKRVLKAGEKPEQNPNPWAPPKGTYIEELFLKNTDPDKVMFELDVYWAVMGQQDPVEWMENYPNRFKLLHIKDRWIIGDSGMMNFPNIFKKAYEIGILGYYVELEGDKKGRTQFEGVEKSAAYLQAAPFVK, MGSDKIHHHHHHTEYPLPAAQSRLIGENQYYTVPEGKHTLEDIAAKYQLGLSNLLEANPGVDPFLPKPGSQLLIPLQLILPNAPREGIVINVAEMRLYYYPKGKKTVEVLPIGIGQIGKDTPENWVTSVQRKRANPTWTPTPRIRKEYAAKGEILPAVWPAGPDNPMGLYALYIGNLYAIHGTNASFGIGLRVSQGCVRLRHEDIEHLFKNVPVGTRVQFVNQPIKATEEPDGKRYLAVHQPLSRTVAEFESNEPVAISLPRDIAKFIAKADTNSSVIKKLLDERTGVPMRINQ
